According to PMC4259466:
Values belong to the substance of their own block, whether it stands above or below them.

How the values were obtained:
[1] = target: MLC2 (UniProt P10916); test: His-PKM2 bead pull-down of GST-MLC2; conditions: reference: WT His-PKM2 without Aurora B; sites T45
[2] = target: ROCK2 (UniProt O75116); test: GST-MLC2 pull-down from HeLa lysate; conditions: sites Y118

binding against the reference [1]: stronger
Substance: PKM2 (from UniProt P14618) WT His-PKM2 treated with Aurora B

binding against the reference ([2]; reference: GST-MLC2 with PKM2, no PEP): stronger
Substance: MLC2 (from UniProt P10916) GST-MLC2 with PKM2 and PEP

binding against the reference ([2]; reference: GST-MLC2 wild type): lost
Substance: MLC2 (from UniProt P10916) GST-MLC2 Y118F
